“Also recorded” adds a separate entry of the source.
Legend:
S1P = assay: Lung tissue S1P by HPLC/MS/MS in neonatal mice; assay type: in vivo, mouse; details: neonatal C57BL/6 mice; recombinant EMAP II subQ days of life 3-15; postnatal day 15 lungs
Protocol: Animal experimental procedure was performed in accordance with the guidelines issued by the University of Notre Dame/Indiana University Institutional Animal and Use Committee. Lung tissues were harvested from postnatal day 15 C57BL/6 mice (Jackson laboratories) that were injected with either EMAP II or PBS at Day 3. Total protein was extracted and quantified. 1 mg of total protein was subjected to S1P quantification by HPLC/MS/MS.
Collected cells were rinsed with PBS, pelleted. Cell pellets and 1 mg of protein tissue extracts were frozen at −80° C. Sphingolipids extraction and analysis was carried out at the Medical University of South Carolina (MUSC) core facility using eight-point calibration curves generated for each target analyte by High Performance Liquid Chromatography-Tandem Mass Spectrometry (HPLC/MS/MS) system operating in positive multiple reaction-monitoring (MRM) mode engaging a gradient elution. Sphingolipids were normalized to inorganic phosphate levels in PASMC which was determined from the Bligh & Dyer lipid extraction method. Biological samples were from different passages collected on different days.

hPASMC = assay: WST-1 cell proliferation assay in hPASMC; assay type: cell-based, human; details: SMCs; EMAP II 2 μg/mL 48 hours
Protocol: (§1) Cell proliferation of hPASMCs was assessed using WST-1 cell proliferation reagent (Roche Diagnostic Corporation, IN) in a 96-well plate. Human PASMCs were seeded at 4200 cells/well density in 100 μl complete medium and serum starved for overnight. Cells were stimulated for 48 hours with 2 μg/mL EMAP II following the pretreatment with inhibitors. WST-1 reagent (10 μL) was added into each well and incubated for 90 minutes in a humidified atmosphere with 5% CO2 at 370 C. Absorbance was measured at 450 nm using microplate reader. Blank control well was with medium and WST-1 reagent without cultured cells. All samples were in duplicates. Cell proliferation was determined by subtracting the background reading from average of duplicate of each sample.
as §1, with “37°” for “370”, “Blank control well was with medium and WST-1 reagent without cultured cells. All samples were in duplicates.” left out

pSphK1 = pSphK1 immunofluorescence in THP-1 macrophages; assay type: cell-based, human; details: THP1 macrophages; 1 hour EMAP II
Protocol: Few passages after thawing of THP-1 cell line, cells were seeded in Nunc Lab-Tek™ II 4-well imaging plates and treated with 100 nM Phorbol myristate acetate (InvivoGen, CA) for 3 days allowing THP-1 monocytes to differentiate into macrophages.
Primary hPASMCs cells or human THP-1 macrophages were seeded in Nunc Lab-Tek™ II 4-well imaging plates (Thermo Fisher Scientific) chamber well slides and cultured in growth medium. After the serum starvation cells were stimulated with EMAP II. Treated cells were rinsed with PBS and fixed with 4% paraformaldehyde at room temperature for 15 min and permeabilized with 0.1% Triton X-100 at room temperature for 10 min After washing with PBS three times, the cells were incubated with EGR1, 1amin, or pSphK1 antibody at 40C overnight. The cells were then rinsed with PBS three times and subsequently incubated with respective secondary antibody conjugated with Alex Fluor 647 and 488 or Phalloidin 488 at room temperature for 1 h. The cells were rinsed with PBS three times and coverslips were mounted with SlowFade Gold Antifade Mountant with DAPI (Thermo Fischer Scientific) and the cells were examined under Olympus microscope with 40× for EGR1 expression and with 60× for pSphK1 water immersion. […]

B1: EMAP II: 6x-His tagged recombinant EMAP II, cleaved C-terminal peptide of AIMP1 (SEQ ID NO: 2), pro-inflammatory cytokine (protein)
chain: IAGSADSKPIDVSRLDLRIGCIITARKHPDADSLYVEEVDVGEIAPRTVVSGLVNHVPLEQMQNRMVILLCNLKPAKMRGVLSQAMVMCASSPEKIEILAPPNGSVPGDRITFDAFPGEPDKELNPKKKIWEQIQPDLHTNDECVATYKGVPFEVKGKGVCRAQTMSNSGIK
S1P
  whole lung S1P levels compared to control: significantly increased; also recorded: significant increase
hPASMC
  cell proliferation (WST1): promotes cell proliferation
pSphK1
  pSphK1 localization to the plasma membrane: stimulated translocation; also recorded: elevated levels of pSPHK1
